Values belong to the molecule of their own block, whether it stands above or below them.
Assays:
Cox13 = biological target: T1, Cox13 (Saccharomyces cerevisiae, UniProt P32799); experiment: 1H-15N HSQC NMR titration (chemical shift perturbation, global fit); format: binding
T1 construct: 15 kDa; homodimer
T1 sequence (P32799 1-129): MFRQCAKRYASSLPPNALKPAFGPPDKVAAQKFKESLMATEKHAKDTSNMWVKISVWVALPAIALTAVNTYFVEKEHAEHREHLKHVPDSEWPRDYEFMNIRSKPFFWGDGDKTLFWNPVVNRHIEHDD

[1] = biological target: Cox13Δ-CytcO: S. cerevisiae cytochrome c oxidase lacking Cox13, with a Flag-tag on Cox6 (S. cerevisiae) (UniProt P00401)
[2] = biological target: wildtype S. cerevisiae cytochrome c oxidase (CytcO, Complex IV) with a 6xHis-tag on Cox13 (S. cerevisiae) (UniProt P00401)
Cox13Δ-CytcO = test system: T2, Cox13Δ-CytcO; experiment: oxygen consumption (Clark electrode), activity vs ATP; format: biochemical, Saccharomyces cerevisiae; details: tentative fit of stimulation of turnover; yeast cyt. c 50 μM, ascorbate, TMPD, 0.035% DDM, KPi; allosteric, more than one site
T2 construct: gene COX1; Complex IV lacking subunit Cox13, Flag-tag on Cox6, purified from yeast membranes in DDM; ATP site not assigned

[3] = biological target: the molecule itself; experiment: SEC; Superdex 200 10/300; 20 mM NaPi pH 6.5, 50 mM L-Arg, 50 mM L-Glu, 1 mM DTT, 3 mM DPC; Cox13-DPC complex elutes in a single peak of apparent mass 55-60 kDa

wildtype S. cerevisiae cytochrome c oxidase (CytcO, Complex IV) with a 6xHis-tag on Cox13 (S. cerevisiae), sequence (P00401 whole entry, looked up, one chain of several): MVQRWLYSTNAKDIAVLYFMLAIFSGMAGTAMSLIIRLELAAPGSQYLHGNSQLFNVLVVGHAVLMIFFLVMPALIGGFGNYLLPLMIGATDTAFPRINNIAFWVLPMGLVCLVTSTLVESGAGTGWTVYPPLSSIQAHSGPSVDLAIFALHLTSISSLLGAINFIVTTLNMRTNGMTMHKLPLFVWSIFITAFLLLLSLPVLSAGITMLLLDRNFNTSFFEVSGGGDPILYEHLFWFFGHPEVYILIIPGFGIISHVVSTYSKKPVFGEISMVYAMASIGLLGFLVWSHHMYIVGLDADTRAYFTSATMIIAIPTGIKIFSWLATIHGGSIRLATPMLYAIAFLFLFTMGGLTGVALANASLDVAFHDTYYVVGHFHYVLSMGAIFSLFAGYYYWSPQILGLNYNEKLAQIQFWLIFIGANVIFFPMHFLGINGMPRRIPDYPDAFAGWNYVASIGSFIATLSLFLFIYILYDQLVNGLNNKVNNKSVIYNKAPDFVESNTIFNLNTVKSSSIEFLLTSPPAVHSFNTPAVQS
Cox13Δ-CytcO: S. cerevisiae cytochrome c oxidase lacking Cox13, with a Flag-tag on Cox6 (S. cerevisiae), sequence (P00401 whole entry, looked up, stated change not applied): as the sequence (P00401 whole entry, looked up, one chain of several) above

Molecule: Nc1ncnc2c1ncn2[C@@H]1O[C@H](COP(=O)(O)OP(=O)(O)O)[C@@H](O)[C@H]1O [ADP]
Kd (Cox13): 17 ± 2 mM

Km^1 (low Km) for cyt. c, oxygen-consumption turnover of purified Cox13Δ-CytcO against added yeast cyt. c, no ATP [1]: 0.2 µM
Km^2 (high Km) for cyt. c, oxygen-consumption turnover of purified Cox13Δ-CytcO against added yeast cyt. c, no ATP [1]: 20 µM
single Km for cyt. c, oxygen-consumption turnover of purified Cox13Δ-CytcO against added yeast cyt. c, with 5 mM ATP [1]: 5.8 µM
Km^1 (low Km) for cyt. c, oxygen-consumption turnover of purified CytcO against added yeast cyt. c, no ATP [2]: 1.3 µM
Km^2 (high Km) for cyt. c, oxygen-consumption turnover of purified CytcO against added yeast cyt. c, no ATP [2]: 20 µM
single Km for cyt. c, oxygen-consumption turnover of purified CytcO against added yeast cyt. c, with 5 mM ATP [2]: 8.6 µM
Molecule: yeast cytochrome c (from UniProt P00044 1-109) (natural protein)

Molecule: Nc1ncnc2c1ncn2[C@@H]1O[C@H](COP(=O)(O)OP(=O)(O)OP(=O)(O)O)[C@@H](O)[C@H]1O [ATP]
Kd (Cox13Δ-CytcO): ATP binds less tight (with tentative Kd in the mM range
Kd (Cox13): 15 ± 2 mM

B1: Cox13 (cytochrome c oxidase subunit Cox13) from S. cerevisiae, refolded in DPC micelles (natural protein)
chain: ASSLPPNALKPAFGPPDKVAAQKFKESLMATEKHAKDTSNMWVKISVWVALPAIALTAVNTYFVEKEHAEHREHLKHVPDSEWPRDYEFMNIRSKPFFWGDGDKTLFWNPVVNRHIEHDD
notes: Cox13, cytochrome c oxidase subunit of S. cerevisiae; the gene was cloned into pET-28a; predicted mass 15 kDa; residues assigned up to I125; Isotope-labelled (15N and/or 13C) or unlabelled, depending on the experiment; also called Cox13-DPC complex; CoxVIa in mammals (homolog)
stoichiometry N [3]: 2

From PMC8111780, “NMR structural analysis of the yeast cytochrome c oxidase subunit Cox13 and its interaction with ATP” (BMC Biology, 2021)
